# From patent US6638724
# Test system: T1, human BLNK-1 (B cell LINKER PROTEIN, 70,000 Mr protein)
# T1 sequence: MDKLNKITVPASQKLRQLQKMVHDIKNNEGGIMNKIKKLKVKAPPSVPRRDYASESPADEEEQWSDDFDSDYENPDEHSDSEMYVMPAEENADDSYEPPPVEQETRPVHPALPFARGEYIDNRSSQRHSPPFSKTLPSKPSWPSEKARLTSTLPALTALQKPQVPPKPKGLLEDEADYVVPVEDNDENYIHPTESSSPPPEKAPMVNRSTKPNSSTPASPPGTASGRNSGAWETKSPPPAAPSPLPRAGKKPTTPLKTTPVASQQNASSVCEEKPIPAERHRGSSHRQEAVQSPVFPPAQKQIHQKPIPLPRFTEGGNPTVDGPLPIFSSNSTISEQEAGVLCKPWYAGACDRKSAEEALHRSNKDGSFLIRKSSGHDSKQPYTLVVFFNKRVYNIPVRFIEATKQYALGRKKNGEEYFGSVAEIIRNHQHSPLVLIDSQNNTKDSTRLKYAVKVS
substance,measurement,value
Syk protein tyrosine kinase,tyrosine phosphorylation of BLNK,"Syk can phosphorylate BLNK when co-expressed in insect cells, and in vitro"
